Laboratory results: patent publication US5922685

How the values were obtained:
CD4 (mouse) = CD4 (mouse) (UniProt P06332)

depletion of T cell subset in mice (CD4 (mouse)) [%] | depletion of T cell subset in mice (CD8 (mouse)) [%] | Substance
> 90 |  | anti-CD4 mAb (clone GK1.5) (antibody)
 | > 90 | anti-CD8 mAb (clone 2.43) (antibody)
